Legend:
[1] = molecular target: T1, Full length untagged human MDM2 (Murine double minute 2) (human, UniProt Q00987 1-491); experiment: atomic force spectroscopy
[2] = molecular target: T1, Full length untagged human MDM2 (Murine …); experiment: SPR

T1 sequence (Q00987 whole entry): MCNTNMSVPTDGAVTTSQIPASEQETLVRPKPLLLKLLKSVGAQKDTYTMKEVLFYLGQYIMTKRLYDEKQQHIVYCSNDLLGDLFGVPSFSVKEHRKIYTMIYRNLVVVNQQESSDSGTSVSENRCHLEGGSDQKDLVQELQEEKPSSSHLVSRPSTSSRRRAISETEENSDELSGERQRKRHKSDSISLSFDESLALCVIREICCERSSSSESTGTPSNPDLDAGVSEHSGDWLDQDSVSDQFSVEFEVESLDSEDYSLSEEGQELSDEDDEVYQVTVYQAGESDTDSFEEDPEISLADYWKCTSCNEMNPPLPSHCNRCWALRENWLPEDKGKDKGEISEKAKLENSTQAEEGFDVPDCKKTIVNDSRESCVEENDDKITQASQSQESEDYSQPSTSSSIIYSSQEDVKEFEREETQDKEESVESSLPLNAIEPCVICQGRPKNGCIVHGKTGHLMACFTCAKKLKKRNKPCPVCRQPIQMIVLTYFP

koff [1]: 0.02 ± 0.01 s⁻¹
Kd [2]: 2 µM
B1: Full length N-terminal glutathione S-transferase (GST)-tagged human MDM4 (Murine double minute 4) (natural protein, UniProt O15151 1-490, looked up)
chain: MTSFSTSAQCSTSDSACRISPGQINQVRPKLPLLKILHAAGAQGEMFTVKEVMHYLGQYIMVKQLYDQQEQHMVYCGGDLLGELLGRQSFSVKDPSPLYDMLRKNLVTLATATTDAAQTLALAQDHSMDIPSQDQLKQSAEESSTSRKRTTEDDIPTLPTSEHKCIHSREDEDLIENLAQDETSRLDLGFEEWDVAGLPWWFLGNLRSNYTPRSNGSTDLQTNQDVGTAIVSDTTDDLWFLNESVSEQLGVGIKVEAADTEQTSEEVGKVSDKKVIEVGKNDDLEDSKSLSDDTDVEVTSEDEWQCTECKKFNSPSKRYCFRCWALRKDWYSDCSKLTHSLSTSDITAIPEKENEGNDVPDCRRTISAPVVRPKDAYIKKENSKLFDPCNSVEFLDLAHSSESQETISSMGEQLDNLSEQRTDTENMEDCQNLLKPCSLCEKRPRDGNIIHGRTGHLVTCFHCARRLKKAGASCPICKKEIQLVIKVFIA

— publication PMC5012629 (International Journal of Nanomedicine, 2016)
